Measured values published in article PMC7022712, “Functional Analysis of DNMT3A DNA Methyltransferase Mutations Reported in Patients with Acute Myeloid Leukemia”.

Experiments:
[1] = target: Dnmt3a-CD F162V (Mus musculus, UniProt O88508 608-908, F748V); assay: fluorescence polarization; 100 uM AdoHcy; no plateau reached; Buffer A: 20 mM HEPES pH 7.5, 100 mM KCl, 1 mM EDTA, 1 mM DTT, 100 uM AdoHcy, 25 C; DNA 100 nM (Methods) or 10 nM (Figure 6 legend); Hill fit; conditions: protein: recombinant; tags: C-terminal His6; chain copies: 2; label: 5'-FAM on strand 1 via aminohexyl linker; blunt
Dnmt3a-CD F162V, sequence (O88508 608-908 F748V): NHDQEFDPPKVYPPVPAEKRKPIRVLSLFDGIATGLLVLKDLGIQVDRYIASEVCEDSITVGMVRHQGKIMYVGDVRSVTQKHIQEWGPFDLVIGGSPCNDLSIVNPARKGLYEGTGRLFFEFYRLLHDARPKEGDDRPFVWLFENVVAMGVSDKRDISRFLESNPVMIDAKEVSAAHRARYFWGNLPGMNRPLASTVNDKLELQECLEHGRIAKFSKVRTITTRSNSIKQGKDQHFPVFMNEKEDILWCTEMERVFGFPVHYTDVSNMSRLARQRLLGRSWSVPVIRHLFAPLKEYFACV

[2] = target: Dnmt3a-CD S124C (Mus musculus, UniProt O88508 608-908, S710C); assay: fluorescence polarization; 100 uM AdoHcy; Buffer A: 20 mM HEPES pH 7.5, 100 mM KCl, 1 mM EDTA, 1 mM DTT, 100 uM AdoHcy, 25 C; DNA 100 nM (Methods) or 10 nM (Figure 6 legend); Hill fit; conditions: protein: recombinant; tags: C-terminal His6; chain copies: 2; label: 5'-FAM on strand 1 via aminohexyl linker; blunt
Dnmt3a-CD S124C, sequence (O88508 608-908 S710C): as the sequence (O88508 608-908 F748V) above, with S103C, V141F counted along it

[3] = target: Dnmt3a-CD R45W (Mus musculus, UniProt O88508 608-908, R631W); assay: as above; conditions: protein: recombinant; tags: C-terminal His6; chain copies: 2; label: 5'-FAM on strand 1 via aminohexyl linker; blunt
Dnmt3a-CD R45W, sequence (O88508 608-908 R631W): as the sequence (O88508 608-908 F748V) above, with R24W, V141F counted along it

[4] = target: Dnmt3a-CD R146H (Mus musculus, UniProt O88508 608-908, R732H); assay: as above; conditions: protein: recombinant; tags: C-terminal His6; chain copies: 2; label: 5'-FAM on strand 1 via aminohexyl linker; blunt
Dnmt3a-CD R146H, sequence (O88508 608-908 R732H): as the sequence (O88508 608-908 F748V) above, with R125H, V141F counted along it

[5] = target: Dnmt3a-CD WT (Mus musculus, UniProt O88508 608-908); assay: as above; conditions: protein: recombinant; tags: C-terminal His6 (Results); chain copies: 2; label: 5'-FAM on strand 1 via aminohexyl linker; blunt
Dnmt3a-CD WT, sequence (O88508 608-908): as the sequence (O88508 608-908 F748V) above, with V141F counted along it

B1: fCG/CG (dsDNA)
DNA 1: CTGAATACTACTTGCGCTCTCTAACCTGAT
DNA 2: ATCAGGTTAGAGAGCGCAAGTAGTATTCAG
**Q.** How did the Kd [1] turn out when B1 was run?
**A.** Its Kd is 0.232 ± 0.032 µM.

**Q.** And the Kd [2]?
**A.** Its Kd is 0.127 ± 0.044 µM.

**Q.** Does B1 bind [3]?
**A.** Result: no binding

**Q.** Does B1 bind [4]?
**A.** Result: no binding

**Q.** And the Kd [5]?
**A.** The Kd was 0.077 ± 0.006 µM.
